For the assay, the target named is FMDV O1 Manisa (Foot and Mouth Disease Virus serotype O). Kind of assay: indirect ELISA, inactivated FMDV coated, hybridoma supernatant.

These results are taken from KR20190006154A.

B1: 4B14 (antibody, V domains shown)
VH: EVQLQQSGPEVVKPGASVKMSCKASGYSFTGYYMNWVKQSHVKSLEWIGRINPDNGATNYNQNVKDKASLTVDKSSNTAYMELHSLTSEDSAVYYCARWLLSPYVMDYWGQGTSVTVSS
VL: DIVLTQSPASLAVSLGQRATISYRASKSVSTSGYSYMHWNQQKPGQPPRLLIYLVSNLESGVPARFSGSGSGTDFTLNIHPVEEEDAATYYCQHIRELTRSEGGPSW
As to B1, the O.D (450nm) in ELISA screening plate is 2.31 O.D (450nm).

B2: 7F32 (antibody, V domains shown)
VH: EVQLVESGGDLVKPGGSLKLSCAASGFTFSNYGMSWGRQTPDKRLEWVATISSGGSYTYYPDSLKGRFTISRDNAKNTLYLQMTSLKSEDTAMYYCSSPYYDSSYDYSLDYWGQGTSVTVSS
VL: DIVLTQSPASLAVSLGQRATISYRASKSVSTSGYSYMHWNQQKPGQPPRLLIYLVSNLESGVPARFSGSGSGTDFTLNIHPVEEEDAATYYCQHIRELTRSEGGPSW
B2: the O.D (450nm) in ELISA screening plate was 0.91 O.D (450nm).
